# Read-outs that look alike come from different tables or passages of the source.
# B1: UbaA, E1-like SAMP-activating enzyme of Haloferax volcanii, purified wild type (enzyme, UniProt D4GSF3 1-270, looked up)
# chain: MTLSLDATQLDRYSRHIIMDEVGPEGQGRLLSSRVVVVGAGGLGAPAIQYLAAVGVGELVVVDDDVVERSNLQRQVVHCDDDVGTPKAESAAAFVRGLNPDVSVEPVEARVDKSNVHEVVAGSDVVVDASDNFPTRYLLNDVCRFEGIPLVHGAIYKFEGQATTLVPDGPCYRCLFPEAPEPGTVPDCATTGVLGVLPGTVGCIQATEAMKLLLDEGEALDGRLLFYDAMDMTFETVPYRTNPDCPVCGEGGVDSIEDIDYVESCAISLD
# Tests used:
# SEC = target: the molecule itself; experiment: SEC
# [1] = target: B1; experiment: ITC
# [2] = target: B1; experiment: ITC; remark: listed apart in the source
# [3] = target: B1; experiment: ITC; remark: listed apart in the source
# [4] = target: B1; experiment: ITC; remark: listed apart in the source
Ka [4] [M⁻¹],Kd [4] [µM],dH [4] [kcal/mol],stoichiometry N [4],Binder,stoichiometry N (SEC),further results
,,,,B1,2,
,,,,"UbaA D131N, purified (enzyme, Haloferax volcanii, UniProt D4GSF3 1-270, looked up) MTLSLDATQLDRYSRHIIMDEVGPEGQGRLLSSRVVVVGAGGLGAPAIQYLAAVGVGELVVVDDDVVERSNLQRQVVHCDDDVGTPKAESAAAFVRGLNPDVSVEPVEARVDKSNVHEVVAGSDVVVDASNNFPTRYLLNDVCRFEGIPLVHGAIYKFEGQATTLVPDGPCYRCLFPEAPEPGTVPDCATTGVLGVLPGTVGCIQATEAMKLLLDEGEALDGRLLFYDAMDMTFETVPYRTNPDCPVCGEGGVDSIEDIDYVESCAISLD",2,
,,,,"UbaA C188A, purified (enzyme, Haloferax volcanii, UniProt D4GSF3 1-270, looked up) MTLSLDATQLDRYSRHIIMDEVGPEGQGRLLSSRVVVVGAGGLGAPAIQYLAAVGVGELVVVDDDVVERSNLQRQVVHCDDDVGTPKAESAAAFVRGLNPDVSVEPVEARVDKSNVHEVVAGSDVVVDASDNFPTRYLLNDVCRFEGIPLVHGAIYKFEGQATTLVPDGPCYRCLFPEAPEPGTVPDAATTGVLGVLPGTVGCIQATEAMKLLLDEGEALDGRLLFYDAMDMTFETVPYRTNPDCPVCGEGGVDSIEDIDYVESCAISLD",2,
,,,,"UbaA K87R, purified (enzyme, Haloferax volcanii, UniProt D4GSF3 1-270, looked up) MTLSLDATQLDRYSRHIIMDEVGPEGQGRLLSSRVVVVGAGGLGAPAIQYLAAVGVGELVVVDDDVVERSNLQRQVVHCDDDVGTPRAESAAAFVRGLNPDVSVEPVEARVDKSNVHEVVAGSDVVVDASDNFPTRYLLNDVCRFEGIPLVHGAIYKFEGQATTLVPDGPCYRCLFPEAPEPGTVPDCATTGVLGVLPGTVGCIQATEAMKLLLDEGEALDGRLLFYDAMDMTFETVPYRTNPDCPVCGEGGVDSIEDIDYVESCAISLD",2,
850000,1.2,2.92,0.98,"SAMP1, small ubiquitin-like archaeal modifier protein 1, purified (natural protein, Haloferax volcanii, UniProt D4GUF6 1-87, looked up) MEWKLFADLAEVAGSRTVRVDVDGDATVGDALDALVGAHPALESRVFGDDGELYDHINVLRNGEAAALGEATAAGDELALFPPVSGG",,Ka [1]: 250000 M⁻¹; Kd [1]: 4.1 µM; dH [1]: 3.82 kcal/mol; stoichiometry N [1]: 1.02; Ka [2]: 590000 M⁻¹; Kd [2]: 1.7 µM; dH [2]: 8.65 kcal/mol; stoichiometry N [2]: 0.95; Ka [3]: 230000 M⁻¹; Kd [3]: 4.4 µM; dH [3]: 4.95 kcal/mol; stoichiometry N [3]: 0.95
230000,4.3,-16.5,0.99,"SAMP2, small ubiquitin-like archaeal modifier protein 2, purified (natural protein, Haloferax volcanii, UniProt D4GZE7 1-66, looked up) MNVTVEVVGEETSEVAVDDDGTYADLVRAVDLSPHEVTVLVDGRPVPEDQSVEVDRVKVLRLIKGG",,

# — paper PMC5053900 (The FEBS journal, 2016)
